Reference: the supplement of paper PMC9170038

Tested on: MS2 coat protein
Test: apparent KD of MS2 coat protein; higher = weaker reporter binding
Settings: Eterna round: R107
Summary of the method: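 With or without constant ligand, designed RNA switches in 100 mM Tris-HCl pH 7.5, 80 mM KCl and 4 mM MgCl2 were titrated with SNAP-549-labelled MS2 coat protein. Concentrations went up in twofold steps from 0.7 or 1.5 nM to 3 µM. The switches had been transcribed on-chip from Illumina sequencing clusters, and apparent KD is the per-design median of normalised cluster binding-curve fits.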

[1] = input ligand: theophylline 20 uM
[2] = input ligand: theophylline 2 mM
[3] = input ligand: tryptophan 2.4 mM

Sequence | apparent KD of MS2 coat protein (input ligand: arginine 13.2 mM) | apparent KD of MS2 coat protein [1] | apparent KD of MS2 coat protein [2] | apparent KD of MS2 coat protein [3] | apparent KD of MS2 coat protein (input ligand: none)
ACGUAGAAGUCGGCCGCCACUGAUUUCAUGUUCAACAUGAGGAUCACCCAUGUACCUUAUGUUAACAGGACCGGGACGUAUACGA [JR_SSTryptoB_Sub001] | 228 nM | 303 nM | 442 nM |  | 
CAAAUAGACCACGAUACCAGAACACAAGGAGUAAUAUCAAACAUGAGGAUCACCCAUGUCUUCCCUUGGCAGCGUAGCACGGAGU [theeternabot_exclusion_MS2_Theo_B_23] | 13.5 nM | 15.2 nM |  | 11 nM | 
GGGUACAUCGCGGCCGCCACUUAUGUAAAUACAUGAGGAUCACCCAUGUCGAUGGAGACAUCGGAAAGGACCGGGUGAUGUACCG | 130 nM | 271 nM | 262 nM |  | 
UUAACAUGAGGAUCACCCAUGUUUGAUGAAGGAGCGACCAGAGGGUCAGGUAGGUCGCAUCACAUGAGGAUCACCCAUGUCGCCC [DOUBLE!!! :-D #13] | 22.3 nM | 26 nM | 25.8 nM | 22.4 nM | 21.8 nM
UAACAUGAGGAUCACCCAUGUUUGAAGGAACGAGGACCGGUACGGCCGCCACUCGACGAGUGGAUGAGAAGUGGGAUUGUGUGCU [Same State Trp A GF8] | 14.4 nM | 17.5 nM | 17.3 nM | 15.2 nM | 13 nM
AAACGUUGCUGCGAUACCAGACAUGAGGAUCACCCAUGUACCAAGGUACGAAAAUAACAUGUCCCUUGGCAGCGCAGCAACGAAA [MAT - Exclusion Theophlline B - Mod of Eli - D6] | 15.7 nM | 29.7 nM |  | 14.5 nM | 
AAAUGAGGAUCACCCAUGUAACAACGGGAAGGAGCGCCAAACAAGGCAGGUAGGUCGCCCACAUGAGGAUCACCCAUGUGUUGGG [Exclusion Arginine A GF 28] | 89 nM | 105 nM | 166 nM | 177 nM | 137 nM
CGGUUUGUGAUGGAUACCAGCAGAGAAAAUGUUUAUCCUAACAUGAGGAUCACCCAUGUAUGCCCUUGGCAGCUGUUGUGGGCUG [8.V] | 43.3 nM | 80.4 nM |  | 52.5 nM | 
CGAAAGCUCCUUAUGUGCUUUCGACUGGAAGGAGCGAGCGAAAGCUCAGGUAGGUCGCCAGAAACAUGAGGAUCACCCAUGUAAU [(A)''-(M)'-(A)'(Arg1)-(Arg2)-(M1)-(M2)_Design9] | 29.8 nM | 25.6 nM | 27.2 nM | 18.5 nM | 18 nM
AGAACAAAACUAAAUAAACAACUGGGUGAUACCAGCACAUGUGCGUGCCCUUGGCAGCAUCCGGCCACAUGAGGAUCACCCAUGU [Inarar] | 42.6 nM | 95.6 nM |  | 62.7 nM | 
UGUAUGUGAUCUGAUACCAGCGAUGAUAACCUGAGGAUCACCCUGGUAUGGCGAAAGCCUCGCCCUUGGCAGCAGAUCGCAUACU | 184 nM | 402 nM | 30.7 nM | 1210 nM | 747 nM
CGAGUAAGAACAAUCGAAUAACGGUUUUCGCGAGGACCGGUACGGCCGCCACUCGUGUGAUAUCACACAUGAGGAUCACCCAUGU [3'end-1] | 61.3 nM | 96.7 nM | 101 nM |  | 
GCGUGGUCUGCGGCCGCCACUCAAGGAGCUACAUAGCUCCUAGACAUGAGGAUCACCCAUGUCGCGAGGACCGGGUAGAUUCUCC [Same State Typptophan B GF10] | 40.2 nM | 134 nM | 120 nM |  | 
AUGCUUAUCAGAAGGAGCGUCAUUAACAUGAGGAUCACCCAUGUAACAUUGAAUUCGAUGAGACAGGUAGGUCGCUGAAUAGUAA [SS-ArgB27] | 28 nM | 51.5 nM | 41.3 nM | 37.5 nM | 45.1 nM
UCGCCCAGGUAGGCUUAAUGGGAUAUGGAAGGAGCGCUGAUGCCAGCAGGUAGGUCGCCAACGGACAUGAGGAUCACCCAUGUAC [Same State - Arginine A (Freestyle 4)] | 24.7 nM | 34.6 nM | 27.1 nM | 22.7 nM | 18 nM
AACAUGAGGAUCACCCAUGUCCCAUGUGAACGAGGACCGGUACGGCCGCCACUCGACUGAGGCGGCACAUGAGGAUCACCCACAU [whbob_SS_trypto A_2s12] | 151 nM | 207 nM | 269 nM |  | 
UACAUGAGGAUCACCCAUGUAUACAUGGAUACCAGCGACAAUGGGCGCCCUUGGCAGCUAGUGGAUGGAGGGUGGCCACAGUACU [Exclusion Theophyline A GF5] | 25.5 nM | 53.1 nM |  | 42.7 nM | 
AACAUGAGGAUCUUCCUUAAGUGAACUGAAGGAGCGCCAGAUAUGGCAGGUAGGUCGCAGCGAACAUGAGGAUCACCCAUGUUAA [Arg A Ex t3] | 38.1 nM | 33.1 nM | 56 nM | 53.7 nM | 29.4 nM

Sequence | apparent KD of MS2 coat protein (input ligand: arginine 13.2 mM) | apparent KD of MS2 coat protein [1] | apparent KD of MS2 coat protein [2] | apparent KD of MS2 coat protein [3] | apparent KD of MS2 coat protein (input ligand: none)
CUCUUGGCCGCAGUACGUUUAUAGACCUAUCGAGGACCGGUACGGCCGCCACUCGGUUAGUCACAUGAGGAUCACCCAUGUGUCC [theeternabot_exclusion_MS2_Trp_A_38] | 17 nM | 23 nM | 19.7 nM |  | 
CGUAUUGGAAACAGUACGAGUGAUCCGGUCCGAGGACCGGUACGGCCGCCACUCGAAAUUAAUAAACAUGAGGAUCACCCAUGUA [Ex Tryptophan A 10] | 14.8 nM | 19.6 nM | 20.2 nM |  | 
GCACAAGAUGGAAGGAGCGCUGGAAAAGGUCACAUGAGGAUCACCCAUGUUCUCCGAACCGAGCAGGUAGGUCGCUAUCUUGUGC [#09 Same State - Arginine B] | 37.5 nM | 59.9 nM | 50.7 nM | 41.7 nM | 41.9 nM
UUGGGUUUGCGAAGGAGCGGGAAAUAUAUAUAUAUAAUCCUAACAUGAGGAUCACCCAUGUCCCAGGUAGGUCGCGCGGGUUUGG [12.M] | 42 nM | 61.9 nM | 54.3 nM | 51.2 nM | 59.5 nM
AAAGCUACGUAAAAUAAAACUACAUGUGAAGGAGCGCGCGAAAGCGCAGGUAGGUCGCACAUGAGGAUCACCCAUGUCGUAGCAA [MAT - Exclusion Arginine A - Mod of Eli - D5] | 43.9 nM | 101 nM | 78.2 nM | 52.2 nM | 63.4 nM
UGAUACCAGUCGGCCGCCACUAUGCUAGAUACUAGCAAUAAAGGGCGACAUGAGGAUCACCCAUGUAGGACCGGGACUGGUAUCU |  | 14.1 nM | 12 nM |  | 
CCUCGGGACCGAAGGAGCGAGAUAACAACAAUGGGUCUCUACACAUGAGGAUCACCCAUGUCUCAGGUAGGUCGCGGUACCUUAG [Exclusion Arginine B GF23] | 137 nM | 287 nM | 491 nM | 238 nM | 261 nM
GAAGCUCGCGAUGAUACCAGCUCGACUGAUAACAUGAGGAUCACCCAUGUUGUGCGCCCUAGCCCUUGGCAGCAUGACAUAUUCG [theeternabot_sameState_MS2_Theo_B_46] | 47.5 nM | 126 nM |  | 97.8 nM | 
AGACGAGCAAUCAACGGGCGUUUCGUGACGCGAGGACCGGUACGGCCGCCACUCGAGUCUGGACAUGAGGAUCACCCAUGUUAUG [theeternabot_exclusion_MS2_Trp_A_46] | 32.8 nM | 23 nM | 41 nM | 22.2 nM | 22 nM
UGUACAGACAUCGAAUUCCUAUGUGCUGAAGGAGCGUCGUUGACGACAGGUAGGUCGCAGUUAACAUGAGGAUCACCCAUGUACA [Arg A Ex t5] | 45.8 nM | 82.3 nM | 119 nM | 77.5 nM | 85.8 nM
AUUCAGAGAUCACAUGAGGAUCACCCAUGUCGAGGACCGGUACGGCCGCCACUCGCGGCGGUGAAAAUAGAUACAAAGUAUCUAU [Ex_TrypA - Vienna approves #2] | 25.5 nM | 61.8 nM | 45.9 nM | 284 nM | 50 nM
UGUAUGUGAUGUGAUACCAGUCCAAUACUGGUAACAUGAGGAUCACCCAUGUAAUGAUGGGACCCUUGGCAGCACAUCGCAUACU [ThBS] | 175 nM | 347 nM |  | 242 nM | 
UCAGUGCAAGGAAGGAGCGGGUACAUGAGGAUCACCCAUGUGCAAGUGGUGAGCGUUUGUGCCCAGGUAGGUCGCCUAGCCUGGU [XArg-B18] | 507 nM | 172 nM | 179 nM | 159 nM | 125 nM
UUUAUAUAGACGGCCGCCACUGGAAUUAAUACAUGAGGAUCACCCAUGUAUAGAGAAUAAUAAUACAGGACCGGGUCUUCAUGAU [SS Tryp B Tesla 1.1] | 28.3 nM | 34.2 nM | 33.7 nM |  | 
CCUAUGCAGUCGGCCGCCACUGAACAUGAGGAUCACCCAUGUAAUUAAAAUUAAGAUCCUGAAAUCAGGACCGGGACUGUAUAGG [Ex Tryptophan B 4] | 25.5 nM | 280 nM | 140 nM | 196 nM | 1520 nM
CCUGAUGAGUCGGCCGCCACUCCAGUUGUAUUACAGGUUUUCGUAGACAUGAGGAUCACCCAUGUGAGGACCGGGACACACACAG [theeternabot_exclusion_MS2_Trp_B_21] | 11.7 nM | 23.8 nM | 17.4 nM | 17.2 nM | 11.3 nM
UUUAGUCAAUCGGCCGCCACUGACAUGAGGAUCACCCAUGUAGGUAAGGAUCAACCUCGAAAGUACAGGACCGGGAUUCGCCUCU [theeternabot_exclusion_MS2_Trp_B_45] | 51.7 nM | 67.6 nM | 65 nM |  | 
